Publication PMC5838249, “The Apicomplexa-specific glucosamine-6-phosphate N-acetyltransferase gene family encodes a key enzyme for glycoconjugate synthesis with potential as therapeutic target” (Scientific Reports, 2018)

Substrate: CC(=O)SCCNC(=O)CCNC(=O)[C@H](O)C(C)(C)COP(=O)(O)OP(=O)(O)OC[C@H]1O[C@@H](n2cnc3c(N)ncnc32)[C@H](O)[C@@H]1OP(=O)(O)O
Assay: GNA1 kinetic assay, Michaelis-Menten
Type: biochemical, Cryptosporidium parvum
Conditions: co-substrate GlcN-6P

B1: CpGNA1 (Cryptosporidium parvum Iowa II) (protein)
chain: MISSFEVRKATIDDYFELRNLICDVTRCTETLSREQAEERFRYNTYHPYCLVDTENGRIVGYAGFYIIPHLGRKNDSRIEHVIISKEYRNRGLGRLLCKQIIEDAKNKFNCGRIDLTVESHIAKKLYSSLEFEKVNTEVMRNSFLDLTPKSD
Km: 241.7 ± 35.3 µM
